Molecular target: αvβ3 and αvβ5 integrins on human umbilical vein endothelial cells (human), P06756
Assay: cell-based or functional assay

HUVEC adhesion to fibrin, percent of adhesion without antibody, antibody at 10 µg/ml: 45.1%
HUVEC adhesion to fibrinogen, percent of adhesion without antibody, antibody at 10 µg/ml: 34.5%
HUVEC adhesion to gelatin, percent of adhesion without antibody, antibody at 10 µg/ml: 54.8%
HUVEC adhesion to vitronectin, percent of adhesion without antibody, antibody at 10 µg/ml: 3.3%
B1: CNTO 95 (antibody, V domains shown)
VH: QVQLVESGGGVVQPGRSRRLSCAASGFTFSRYTMHWVRQAPGKGLEWVAVISFDGSNKYYVDSVKGRFTISRDNSENTLYLQVNILRAEDTAVYYCAREARGSYAFDIWGQGTMVTVSS
VL: EIVLTQSPATLSLSPGERATLSCRASQSVSSYLAWYQQKPGQAPRLLIYDASNRATGIPARFSGSGSGTDFTLTISSLEPEDFAVYYCQQRSNWPPFTFGPGTKVDIK
